Data reported in article PMC5958618.

Each substance was assayed against F-actin (UniProt P68032) (assay: co-sedimentation).
Substance “wild-type human striated α-tropomyosin (Tpm1.1) with the N-terminal extension Met-Ala-Ser (natural protein)” has a Kd of 1800 nM.
For “E62Q mutant human α-tropomyosin (Tpm1.1) with the N-terminal extension Met-Ala-Ser (natural protein)”, the Kd was 1700 nM.
For “E40K mutant human α-tropomyosin (Tpm1.1) with the N-terminal extension Met-Ala-Ser (natural protein)”, the Kd was 1600 nM.
